Source: paper PMC5500810 (2017)
Substitutions are numbered along the chain they refer to.

B1: Nb 50 (VHH)
VHH: QVQLQESGGGLVQAGGSLRLSCAASGRTFNSYAEAWFRQAPGKEREMIAAVTKAGTTNYANPVKGRFTISRDDAKNMVYLQMNNLKPEDSAVYYCNAISPLWDEYDFWGPGTQVTVSS
modifications: biotin on primary amines (EZ link NHS biotin) in the Eph receptor selectivity AlphaScreen only
B2: Nb 53 (VHH)
VHH: B1 VHH with L11V, T28A, N30S, E34M, A35G, K43T, E44K, K53R
modifications: biotin on primary amines (EZ link NHS biotin) in the Eph receptor selectivity AlphaScreen only
B3: Nb 19 (VHH)
VHH: QVQLQESGGGLVQPGGSLRLSCAATGRNFNAYSIAWFRQAPGKEREFVASINWSGSNTYYAVAVKGRFTTSRDNAKNTVYLQMNSLKPEDTAVYYCNAFAAGWGPDYWGQGTQVTVSS
B4: Nb 39 (VHH)
VHH: QVQLQESGGGLVQPGGSLKLSCAASGFTFSTYAMSWVRQAPGKGLEWVSRINSGGGYTWHADSVKGRFTISRDNARNTVYLQMNNLKPEDTAVYYCTNLNTGWRPEYWGQGTQVTVSS
modifications: biotin on primary amines (EZ link NHS biotin) in the Eph receptor selectivity AlphaScreen only
B5: Nb 57 (VHH)
VHH: QVQLQESGGGLVQPGGSLRLSCAASGFTFSSYYMYWVRQAPGKGLEWVSTINTGGGSTNYADSVKGRFIISRDNAKNTVYLQMNSLKPEDTAVYYCNAFAAGWGPDYWGQGTQVTVSS
modifications: biotin on primary amines (EZ link NHS biotin) in the Eph receptor selectivity AlphaScreen only
B6: Nb 22 (VHH)
VHH: QVQLQESGGGPVRAGESLRLSCTASGRAFSTYTMGWFRQAPGKERELVAVITPGGNTNYADSVKGRFTISRDDAKNTVYLQMNSLKPVDTAVYYCHVVLAVVGTGNEYDVWGQGTQVTVSS
modifications: biotin on primary amines (EZ link NHS biotin) in the Eph receptor selectivity AlphaScreen only
B7: Nb 60 (VHH)
VHH: QVQLQESGGGLVQPGGSLRLSCAASGFTFSRYWIYWVRQAPGKQRELVAAITRNGVTNYADSVKGRFTISTDDNKNTVYLQMNSLKSEDTAVYYCNAWGFLLGDIEDYWGQGTQVTVSS
modifications: biotin on primary amines (EZ link NHS biotin) in the Eph receptor selectivity AlphaScreen only
B8: Nb 31 (VHH)
VHH: B1 VHH with R27F, T28A, F29S, N30D, S31A, E34I, A35G, K43T, E44K, T56A
modifications: biotin on primary amines (EZ link NHS biotin) in the Eph receptor selectivity AlphaScreen only
B9: Nb 34 (VHH)
VHH: QVQLQESGGGLVQAGGSLRLSCAASGFTFSSYAMSWVRQAPGKGLEWVSGINTGGGSTYYADSVKGRFTISRDNAKNTLYLQMNSLKSEDTAVYYCVPRVGVLEGLTSFGSWGQGTQVTVSS

Target: T1, mouse EphA4-Fc (R&D Systems) (mouse, UniProt Q03137 20-547)
Assay: SPR

T1 sequence (Q03137 20-547): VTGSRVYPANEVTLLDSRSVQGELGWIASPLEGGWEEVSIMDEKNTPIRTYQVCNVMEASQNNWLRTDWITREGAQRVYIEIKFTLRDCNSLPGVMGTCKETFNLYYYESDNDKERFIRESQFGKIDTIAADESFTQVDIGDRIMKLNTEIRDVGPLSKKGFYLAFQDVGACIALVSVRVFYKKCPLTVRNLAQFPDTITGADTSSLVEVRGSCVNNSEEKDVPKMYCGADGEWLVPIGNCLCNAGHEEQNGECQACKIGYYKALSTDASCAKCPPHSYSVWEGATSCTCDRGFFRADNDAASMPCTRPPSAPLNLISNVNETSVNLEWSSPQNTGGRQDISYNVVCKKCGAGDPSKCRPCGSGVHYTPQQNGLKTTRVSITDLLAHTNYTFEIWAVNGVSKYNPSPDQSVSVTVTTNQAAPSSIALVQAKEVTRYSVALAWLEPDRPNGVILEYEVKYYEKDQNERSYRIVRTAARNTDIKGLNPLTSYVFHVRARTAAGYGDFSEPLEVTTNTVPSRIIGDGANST

koff [s⁻¹] | Binder
0.114 | B1
0.0244 | B2
0.135 | B3
0.0158 | B4
0.288 | B5
0.023 | B6

Target: T2, human EphA4-Fc (R&D Systems) (human, UniProt P54764 20-547)
Assay: SPR

T2 sequence (P54764 20-547): as the sequence (Q03137 20-547) above, with A59P, S121N, G124V, Q250R, N251S, S270T, R378K, S406N counted along it

koff [s⁻¹] | Binder
0.0156 | B2
0.091 | B3
0.0291 | B4
0.0488 | B7
0.229 | B5
0.0148 | B6

Target: T3, EphA4 ligand-binding domain (human, amino acids 22-203) (human, UniProt P54764 22-203, biotin on primary amines (EZ link NHS biotin) in the AlphaScreen assays only)
Assay: SPR

T3 sequence (P54764 22-203): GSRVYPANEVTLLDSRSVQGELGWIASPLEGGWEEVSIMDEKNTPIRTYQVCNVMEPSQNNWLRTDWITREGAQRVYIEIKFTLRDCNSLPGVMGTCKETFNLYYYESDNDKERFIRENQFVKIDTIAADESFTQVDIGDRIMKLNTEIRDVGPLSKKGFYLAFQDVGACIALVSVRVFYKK

Kd [nM] | Binder
87.3 | B1
45.7 | B2
293 | B8
507 | B3
56.6 | B4
37 | B7
57.5 | B5
54.1 | B6

Target: T1, mouse EphA4-Fc (R&D Systems)
Assay: SPR
Remark: another data set of the same source

Kd [nM] | Binder
104 | B1
22.8 | B2
258 | B8
1140 | B3
23.6 | B4
27.4 | B7
37.8 | B5
26900 | B9
104 | B6

Target: T2, human EphA4-Fc (R&D Systems)
Assay: SPR
Remark: another data set of the same source

Kd [nM] | Binder
64.2 | B1
22.6 | B2
175 | B8
852 | B3
30.1 | B4
39.6 | B7
38.3 | B5
18000 | B9
47.1 | B6

Target: T3, EphA4 ligand-binding domain (human, …)
Assay: SPR; kd1

koff [s⁻¹] | Binder
0.192 | B1
0.0594 | B2
0.155 | B8
0.108 | B3
0.0607 | B4
0.115 | B7
0.257 | B5
0.0143 | B6

Target: T1, mouse EphA4-Fc (R&D Systems)
Assay: SPR; kd1

koff [s⁻¹] | Binder
0.151 | B8
0.345 | B9

Target: T2, human EphA4-Fc (R&D Systems)
Assay: SPR; kd1

koff [s⁻¹] | Binder
0.168 | B1
0.2 | B8
0.168 | B9

Target: T3, EphA4 ligand-binding domain (human, …)
Assay: SPR; kd2

koff [s⁻¹] | Binder
0.00062 | B1
0.00213 | B2
0.00676 | B8
0.0289 | B3
0.00186 | B4
0.00018 | B7
0.00133 | B5
0.00255 | B6

Target: T1, mouse EphA4-Fc (R&D Systems)
Assay: SPR; kd2

koff [s⁻¹] | Binder
0.0115 | B8
0.0226 | B9

Target: T2, human EphA4-Fc (R&D Systems)
Assay: SPR; kd2

koff [s⁻¹] | Binder
0.0022 | B1
0.0105 | B8
0.0121 | B9
